Laboratory results as given in ChEMBL document CHEMBL2073894, “Localization of organic anion transporting polypeptide 4 (Oatp4) in rat liver and comparison of its substrate specificity with Oatp1, Oatp2 and Oatp3” (Pflugers Arch, 2001).

T1: Solute carrier organic anion transporter family member 1A5 (Oatp1a5) (Rattus norvegicus, UniProt O88397)
T1 sequence (O88397 whole entry): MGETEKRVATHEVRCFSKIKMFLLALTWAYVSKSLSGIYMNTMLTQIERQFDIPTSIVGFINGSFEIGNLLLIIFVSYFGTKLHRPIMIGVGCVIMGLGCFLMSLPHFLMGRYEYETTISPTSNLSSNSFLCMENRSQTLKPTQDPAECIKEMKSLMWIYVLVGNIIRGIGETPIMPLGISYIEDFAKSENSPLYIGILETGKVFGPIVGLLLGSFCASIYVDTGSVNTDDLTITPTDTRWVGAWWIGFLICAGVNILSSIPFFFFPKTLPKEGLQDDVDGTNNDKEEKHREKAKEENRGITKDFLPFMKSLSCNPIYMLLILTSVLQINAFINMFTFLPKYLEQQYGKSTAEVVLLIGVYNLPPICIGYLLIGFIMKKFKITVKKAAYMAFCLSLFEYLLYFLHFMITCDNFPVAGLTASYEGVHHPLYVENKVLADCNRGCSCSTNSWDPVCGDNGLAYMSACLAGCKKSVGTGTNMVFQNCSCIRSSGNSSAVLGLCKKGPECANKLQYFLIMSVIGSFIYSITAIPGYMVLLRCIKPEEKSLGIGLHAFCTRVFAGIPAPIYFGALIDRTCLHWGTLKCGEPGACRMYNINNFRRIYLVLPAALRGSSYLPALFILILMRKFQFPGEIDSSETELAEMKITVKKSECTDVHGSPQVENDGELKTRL

T2: Solute carrier organic anion transporter family member 1B2 (Rattus norvegicus, UniProt Q9QZX8)
T2 sequence (Q9QZX8 whole entry): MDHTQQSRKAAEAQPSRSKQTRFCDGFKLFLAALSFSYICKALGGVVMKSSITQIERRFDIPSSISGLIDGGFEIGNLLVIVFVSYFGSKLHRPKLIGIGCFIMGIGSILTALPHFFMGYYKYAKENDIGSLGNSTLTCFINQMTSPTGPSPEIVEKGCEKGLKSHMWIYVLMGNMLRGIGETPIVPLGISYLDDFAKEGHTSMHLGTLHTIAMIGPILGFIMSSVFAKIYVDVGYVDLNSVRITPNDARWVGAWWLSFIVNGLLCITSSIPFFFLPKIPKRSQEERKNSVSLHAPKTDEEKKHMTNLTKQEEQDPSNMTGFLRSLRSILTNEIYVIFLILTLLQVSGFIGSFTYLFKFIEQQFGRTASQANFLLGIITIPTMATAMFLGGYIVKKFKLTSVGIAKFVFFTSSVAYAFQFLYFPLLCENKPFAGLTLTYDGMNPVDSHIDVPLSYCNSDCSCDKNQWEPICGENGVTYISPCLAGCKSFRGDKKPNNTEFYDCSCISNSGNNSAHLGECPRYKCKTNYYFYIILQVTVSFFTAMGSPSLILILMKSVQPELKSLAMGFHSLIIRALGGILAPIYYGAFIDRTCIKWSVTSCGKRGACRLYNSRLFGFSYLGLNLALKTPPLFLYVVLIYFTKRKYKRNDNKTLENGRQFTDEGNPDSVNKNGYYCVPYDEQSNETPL

T3: Solute carrier organic anion transporter family member 1A5 (Rattus norvegicus, UniProt O88397)
T3 sequence (O88397 whole entry): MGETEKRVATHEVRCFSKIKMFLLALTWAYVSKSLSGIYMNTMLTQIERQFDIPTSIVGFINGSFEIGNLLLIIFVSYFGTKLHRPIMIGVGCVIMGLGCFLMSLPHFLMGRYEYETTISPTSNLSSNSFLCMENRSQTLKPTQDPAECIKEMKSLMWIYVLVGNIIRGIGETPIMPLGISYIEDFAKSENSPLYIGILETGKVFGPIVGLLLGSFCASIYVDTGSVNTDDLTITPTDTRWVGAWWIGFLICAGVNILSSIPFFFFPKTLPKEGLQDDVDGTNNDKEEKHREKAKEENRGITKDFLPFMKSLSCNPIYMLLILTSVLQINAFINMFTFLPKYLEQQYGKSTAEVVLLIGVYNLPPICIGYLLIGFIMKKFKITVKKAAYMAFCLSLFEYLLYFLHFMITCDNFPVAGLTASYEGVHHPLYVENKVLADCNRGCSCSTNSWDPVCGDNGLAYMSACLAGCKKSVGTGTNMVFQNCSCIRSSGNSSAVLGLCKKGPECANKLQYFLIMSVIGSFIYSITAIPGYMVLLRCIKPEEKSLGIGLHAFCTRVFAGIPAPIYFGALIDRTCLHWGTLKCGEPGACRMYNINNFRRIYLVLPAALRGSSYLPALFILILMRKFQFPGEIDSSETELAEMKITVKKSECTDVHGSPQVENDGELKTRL

T4: Solute carrier organic anion transporter family member 1A1 (Rattus norvegicus, UniProt P46720)
T4 sequence (P46720 whole entry): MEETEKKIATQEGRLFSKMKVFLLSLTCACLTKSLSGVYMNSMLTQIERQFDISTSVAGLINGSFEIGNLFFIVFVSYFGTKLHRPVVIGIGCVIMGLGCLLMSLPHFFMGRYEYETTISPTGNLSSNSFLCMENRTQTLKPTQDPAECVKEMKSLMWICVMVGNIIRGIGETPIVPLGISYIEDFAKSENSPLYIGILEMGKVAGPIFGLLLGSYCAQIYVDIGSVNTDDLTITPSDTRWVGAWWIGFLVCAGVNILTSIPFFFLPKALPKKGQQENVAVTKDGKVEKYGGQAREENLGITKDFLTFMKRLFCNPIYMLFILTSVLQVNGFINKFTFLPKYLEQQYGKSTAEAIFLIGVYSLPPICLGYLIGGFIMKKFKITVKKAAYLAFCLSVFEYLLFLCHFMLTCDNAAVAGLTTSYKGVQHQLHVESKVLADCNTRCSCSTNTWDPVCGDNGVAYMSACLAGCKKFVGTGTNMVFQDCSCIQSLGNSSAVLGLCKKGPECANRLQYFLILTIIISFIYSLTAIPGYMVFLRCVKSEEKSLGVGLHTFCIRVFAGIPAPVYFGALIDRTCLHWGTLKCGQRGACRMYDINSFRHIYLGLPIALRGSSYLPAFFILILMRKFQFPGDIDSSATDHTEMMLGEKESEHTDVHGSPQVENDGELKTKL

T5: Solute carrier organic anion transporter family member 1A4 (Rattus norvegicus, UniProt O35913)
T5 sequence (O35913 whole entry): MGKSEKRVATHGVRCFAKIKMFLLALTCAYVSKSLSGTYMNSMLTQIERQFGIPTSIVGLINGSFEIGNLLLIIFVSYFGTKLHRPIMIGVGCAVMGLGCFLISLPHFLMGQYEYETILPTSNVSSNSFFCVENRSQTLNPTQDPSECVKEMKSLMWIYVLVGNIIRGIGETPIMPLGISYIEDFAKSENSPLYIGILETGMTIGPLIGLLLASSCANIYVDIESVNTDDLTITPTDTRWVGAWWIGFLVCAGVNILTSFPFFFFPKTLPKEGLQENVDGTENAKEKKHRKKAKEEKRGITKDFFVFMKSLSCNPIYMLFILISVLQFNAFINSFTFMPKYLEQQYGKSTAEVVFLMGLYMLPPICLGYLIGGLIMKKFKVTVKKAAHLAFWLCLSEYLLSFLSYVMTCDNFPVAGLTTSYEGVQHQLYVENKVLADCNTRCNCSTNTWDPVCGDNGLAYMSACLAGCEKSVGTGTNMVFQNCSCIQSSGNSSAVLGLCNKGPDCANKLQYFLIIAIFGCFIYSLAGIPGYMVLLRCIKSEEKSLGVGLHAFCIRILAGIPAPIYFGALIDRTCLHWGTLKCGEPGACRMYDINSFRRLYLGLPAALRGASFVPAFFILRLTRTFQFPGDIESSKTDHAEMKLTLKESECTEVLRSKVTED


Columns and labels:
[1] = target: T1, Solute carrier organic anion transporter family member 1A5 (Oatp1a5); assay: (§1) TP_TRANSPORTER: uptake in Xenopus laevis oocytes; assay type: functional, cell-based, Oocyte; conditions: Xenopus laevis oocytes
[2] = target: T2, Solute carrier organic anion transporter family member 1B2; assay: as §1; assay type: functional, cell-based; conditions: oocyte
[3] = target: T3, Solute carrier organic anion transporter family member 1A5; assay: as §1; assay type: functional, cell-based, Oocyte; conditions: oocyte
[4] = target: T4, Solute carrier organic anion transporter family member 1A1; assay: as §1; assay type: functional, cell-based; conditions: oocyte
[5] = target: T5, Solute carrier organic anion transporter family member 1A4; assay: as §1; assay type: functional, cell-based; conditions: oocyte
[6] = substrate: CCCCC/C=C\C\C=C/C=C/C=C/[C@@H](SC[C@@H](NC(=O)CC[C@H](N)C(=O)O)C(=O)NCC(=O)O)[C@@H](O)CCCC(=O)O; assay: as §1; assay type: functional, cell-based, Oocyte
[7] = substrate: CCCCC[C@H](O)/C=C/[C@H]1[C@H](O)CC(=O)[C@@H]1C/C=C\CCCC(=O)O; assay: as §1; assay type: functional, cell-based, Oocyte
[8] = substrate: [H][C@@]12CC=C3C[C@@H](OS(=O)(=O)O)CC[C@]3(C)[C@@]1([H])CC[C@]1(C)C(=O)CC[C@@]21[H]; assay: as §1; assay type: functional, cell-based, Oocyte
[9] = substrate: C[C@]12CC[C@@H]3c4ccc(O)cc4CC[C@H]3[C@@H]1CC[C@@H]2O[C@@H]1O[C@H](C(=O)O)[C@@H](O)[C@H](O)[C@H]1O; assay: as §1; assay type: functional, cell-based, Oocyte
[10] = substrate: C[C@]12CC[C@@H]3c4ccc(OS(=O)(=O)O)cc4CC[C@H]3[C@@H]1CCC2=O; assay: as §1; assay type: functional, cell-based, Oocyte
[11] = substrate: CC1(C)SSC(C)(C)[C@@H](NC(=O)[C@@H](N)Cc2ccc(O)cc2)C(=O)NCC(=O)N[C@@H](Cc2ccccc2)C(=O)N[C@H]1C(=O)O; assay: as §1; assay type: functional, cell-based, Oocyte
[12] = substrate: CC(C)C[C@@H]1NC(=O)[C@@H](C(C)C)NC(=O)[C@@H]2CCCN2C(=O)[C@@H](CC(=O)O)NC(=O)[C@@H](Cc2c[nH]c3ccccc23)NC1=O; assay: as §1; assay type: functional, cell-based, Oocyte
[13] = substrate: O=C1OC(c2ccc(O)c(S(=O)(=O)O)c2)(c2ccc(O)c(S(=O)(=O)O)c2)c2c(Br)c(Br)c(Br)c(Br)c21; assay: as §1; assay type: functional, cell-based, Oocyte

Row | Molecule | Activity [2] | Activity [3] | Km [7] | Km [8] | Km [9] | Km [10] | Km [11] | Km [12] | further results
1 | C[C@@H]1O[C@@H](O[C@H]2C[C@@H](O)[C@]3(CO)[C@H]4[C@H](O)C[C@]5(C)[C@@H](C6=CC(=O)OC6)CC[C@]5(O)[C@@H]4CC[C@]3(O)C2)[C@H](O)[C@H](O)[C@H]1O [OUABAIN] | is not a substrate [-] |  |  |  |  |  |  |  | Km [1]: 1570 µM
2 | C=CC[N+]1([C@H]2C[C@H]3[C@@H]4CC[C@H]5C[C@H](O)[C@@H](N6CCOCC6)C[C@]5(C)[C@H]4CC[C@]3(C)[C@H]2OC(C)=O)CCCC1 [ROCURONIUM] | is not a substrate [-] | substrate [+] |  |  |  |  |  |  | 
3 | CC[N+](CC)(CC)CC [TETRYLAMMONIUM] | is not a substrate [-] | is not a substrate [-] |  |  |  |  |  |  | Activity [4]: is not a substrate [-]; Activity [5]: is not a substrate [-]
4 | Solute carrier organic anion transporter family member 1B2 (Rattus norvegicus) (protein) MDHTQQSRKAAEAQPSRSKQTRFCDGFKLFLAALSFSYICKALGGVVMKSSITQIERRFDIPSSISGLIDGGFEIGNLLVIVFVSYFGSKLHRPKLIGIGCFIMGIGSILTALPHFFMGYYKYAKENDIGSLGNSTLTCFINQMTSPTGPSPEIVEKGCEKGLKSHMWIYVLMGNMLRGIGETPIVPLGISYLDDFAKEGHTSMHLGTLHTIAMIGPILGFIMSSVFAKIYVDVGYVDLNSVRITPNDARWVGAWWLSFIVNGLLCITSSIPFFFLPKIPKRSQEERKNSVSLHAPKTDEEKKHMTNLTKQEEQDPSNMTGFLRSLRSILTNEIYVIFLILTLLQVSGFIGSFTYLFKFIEQQFGRTASQANFLLGIITIPTMATAMFLGGYIVKKFKLTSVGIAKFVFFTSSVAYAFQFLYFPLLCENKPFAGLTLTYDGMNPVDSHIDVPLSYCNSDCSCDKNQWEPICGENGVTYISPCLAGCKSFRGDKKPNNTEFYDCSCISNSGNNSAHLGECPRYKCKTNYYFYIILQVTVSFFTAMGSPSLILILMKSVQPELKSLAMGFHSLIIRALGGILAPIYYGAFIDRTCIKWSVTSCGKRGACRLYNSRLFGFSYLGLNLALKTPPLFLYVVLIYFTKRKYKRNDNKTLENGRQFTDEGNPDSVNKNGYYCVPYDEQSNETPL |  |  | 13 µM | 5.3 µM | 32 µM | 37 µM | 22 µM | 13.8 µM | Km [6]: 6.5 µM
5 | Solute carrier organic anion transporter family member 1A5 (Rattus norvegicus) (protein) MGETEKRVATHEVRCFSKIKMFLLALTWAYVSKSLSGIYMNTMLTQIERQFDIPTSIVGFINGSFEIGNLLLIIFVSYFGTKLHRPIMIGVGCVIMGLGCFLMSLPHFLMGRYEYETTISPTSNLSSNSFLCMENRSQTLKPTQDPAECIKEMKSLMWIYVLVGNIIRGIGETPIMPLGISYIEDFAKSENSPLYIGILETGKVFGPIVGLLLGSFCASIYVDTGSVNTDDLTITPTDTRWVGAWWIGFLICAGVNILSSIPFFFFPKTLPKEGLQDDVDGTNNDKEEKHREKAKEENRGITKDFLPFMKSLSCNPIYMLLILTSVLQINAFINMFTFLPKYLEQQYGKSTAEVVLLIGVYNLPPICIGYLLIGFIMKKFKITVKKAAYMAFCLSLFEYLLYFLHFMITCDNFPVAGLTASYEGVHHPLYVENKVLADCNRGCSCSTNSWDPVCGDNGLAYMSACLAGCKKSVGTGTNMVFQNCSCIRSSGNSSAVLGLCKKGPECANKLQYFLIMSVIGSFIYSITAIPGYMVLLRCIKPEEKSLGIGLHAFCTRVFAGIPAPIYFGALIDRTCLHWGTLKCGEPGACRMYNINNFRRIYLVLPAALRGSSYLPALFILILMRKFQFPGEIDSSETELAEMKITVKKSECTDVHGSPQVENDGELKTRL |  |  | 35 µM | 162 µM | 39 µM | 268 µM | 137 µM | 417 µM | Km [13]: 8.3 µM
